Earlier results as cited in publication PMC3667669.
Like-named read-outs stand apart in the source and are kept apart here.

Key:
Cdc42 (Homo sapiens) [1] = target: Cdc42 (Homo sapiens) (UniProt P60953)
Cdc42 (Homo sapiens) [2] = target: Cdc42 (Homo sapiens) (UniProt P60953); remark: listed apart in the source

Cdc42 (Homo sapiens), sequence (P60953 1-188): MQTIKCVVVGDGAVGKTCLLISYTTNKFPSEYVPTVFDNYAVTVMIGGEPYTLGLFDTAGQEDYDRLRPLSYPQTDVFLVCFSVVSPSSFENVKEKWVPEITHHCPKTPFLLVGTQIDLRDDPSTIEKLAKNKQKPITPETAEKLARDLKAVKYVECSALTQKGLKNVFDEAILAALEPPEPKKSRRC
mero221-CBD CBD, sequence (P42768 201-321): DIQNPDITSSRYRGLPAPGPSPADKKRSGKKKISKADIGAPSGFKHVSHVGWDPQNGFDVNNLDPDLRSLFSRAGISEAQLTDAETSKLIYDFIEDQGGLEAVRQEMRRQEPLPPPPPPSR
CBD fragment CBD, sequence (P42768 201-321): as above

Substance | Kd (Cdc42 (Homo sapiens) [1]) [nM] | Kd (Cdc42 (Homo sapiens) [2]) [nM]
mero221-CBD CBD (from UniProt P42768) | 150 | 
CBD fragment CBD (from UniProt P42768) |  | 77
